Laboratory results taken from paper PMC10348767 (2023).

B1: GST-hnRNPH2 PY-NLS WT (aa 169–225) [human] / karyopherin β2 (Kapβ2) [not stated] (parent complex)
chain 1: LKKHKERIGHRYIEIFKSSRAEVRTHYDPPRKLMAMQRPGPYDRPGAGRGYNSIGRG
chain 2: MVWDRQTKMEYEWKPDEQGLQQILQLLKESQSPDTTIQRTVQQKLEQLNQYPDFNNYLIFVLTKLKSEDEPTRSLSGLILKNNVKAHFQNFPNGVTDFIKSECLNNIGDSSPLIRATVGILITTIASKGELQNWPDLLPKLCSLLDSEDYNTCEGAFGALQKICEDSAEILDSDVLDRPLNIMIPKFLQFFKHSSPKIRSHAVACVNQFIISRTQALMLHIDSFIENLFALAGDEEPEVRKNVCRALVMLLEVRMDRLLPHMHNIVEYMLQRTQDQDENVALEACEFWLTLAEQPICKDVLVRHLPKLIPVLVNGMKYSDIDIILLKGDVEEDETIPDSEQDIRPRFHRSRTVAQQHDEDGIEEEDDDDDEIDDDDTISDWNLRKCSAAALDVLANVYRDELLPHILPLLKELLFHHEWVVKESGILVLGAIAEGCMQGMIPYLPELIPHLIQCLSDKKALVRSITCWTLSRYAHWVVSQPPDTYLKPLMTELLKRILDSNKRVQEAACSAFATLEEEACTELVPYLAYILDTLVFAFSKYQHKNLLILYDAIGTLADSVGHHLNKPEYIQMLMPPLIQKWNMLKDEDKDLFPLLECLSSVATALQSGFLPYCEPVYQRCVNLVQKTLAQAMLNNAQPDQYEAPDKDFMIVALDLLSGLAEGLGGNIEQLVARSNILTLMYQCMQDKMPEVRQSSFALLGDLTKACFQHVKPCIADFMPILGTNLNPEFISVCNNATWAIGEISIQMGIEMQPYIPMVLHQLVEIINRPNTPKTLLENTAITIGRLGYVCPQEVAPMLQQFIRPWCTSLRNIRDNEEKDSAFRGICTMISVNPSGVIQDFIFFCDAVASWINPKDDLRDMFCKILHGFKNQVGDENWRRFSDQFPLPLKERLAAFYGV
B2: FLAG-hnRNPH2 WT, full length [human] / Kapβ2 in HEK293T cells [human (endogenous in HEK293T)] (parent complex)
chain 1: MMLSTEGREGFVVKVRGLPWSCSADEVMRFFSDCKIQNGTSGIRFIYTREGRPSGEAFVELESEEEVKLALKKDRETMGHRYVEVFKSNSVEMDWVLKHTGPNSPDTANDGFVRLRGLPFGCSKEEIVQFFSGLEIVPNGMTLPVDFQGRSTGEAFVQFASQEIAEKALKKHKERIGHRYIEIFKSSRAEVRTHYDPPRKLMAMQRPGPYDRPGAGRGYNSIGRGAGFERMRRGAYGGGYGGYDDYGGYNDGYGFGSDRFGRDLNYCFSGMSDHRYGDGGSSFQSTTGHCVHMRGLPYRATENDIYNFFSPLNPMRVHIEIGPDGRVTGEADVEFATHEDAVAAMAKDKANMQHRYVELFLNSTAGTSGGAYDHSYVELFLNSTAGASGGAYGSQMMGGMGLSNQSSYGGPASQQLSGGYGGGYGGQSSMSGYDQVLQENSSDYQSNLA
chain 2: B1 chain 2

Variants of: B1
Experiment: GST pulldown, Coomassie Blue band intensity; parent: 86; read off a plot

response | Variant
~42% | chain 1 R38W
~28% | chain 1 P41L

Variants of: B2
Experiment: co-immunoprecipitation (anti-FLAG IP, immunoblot densitometry); HEK293T cells transfected with FLAG-hnRNPH2 constructs; parent: 100; read off a plot

percent of parent | Variant
~20% | chain 1 P209L
~25% | chain 1 R206Q
~48% | chain 1 R206W
~26% | chain 1 R206G
~25% | chain 1 Y210C
